Source: the Human Domainome abundance scans (Beltran et al. 2025)
± gives the uncertainty stated by the source.

B1: Protein C-ets-1, residues 55 to 135; numbered along this chain, P14921 (parent)
chain: GFTKEQQRLGIPKDPRQWTETHVRDWVMWAVNEFSLKGVDFQKFCMNGAALCALGKDCFLELAPDFVGDILWEHLEILQKE

Variants of: B1
Experiment: abundance fitness (aPCA) (normalised: wild type 0, dead -1); higher = more abundant; growth selection in yeast, the domain comes from the species named
Conditions: Homo sapiens

| Variant | abundance fitness |
| --- | --- |
| L9Q | -0.165 ± 0.064 |
| L9T | -0.082 ± 0.048 |
| L9N | -0.137 ± 0.11 |
| D40N | -0.146 ± 0.067 |
| D40A | -0.294 ± 0.038 |
| D40H | -0.225 ± 0.059 |
| D40P | -0.343 ± 0.051 |
| D40I | -0.32 ± 0.12 |
| D40W | -0.77 ± 0.088 |
| D40C | -0.134 ± 0.057 |
| G1V | -0.108 ± 0.055 |
| G1T | -0.262 ± 0.17 |
| G1M | -0.186 ± 0.16 |
| G1W | -0.248 ± 0.083 |
| I11G | -0.583 ± 0.043 |
| I11P | -0.465 ± 0.056 |
| I11W | -0.078 ± 0.062 |
| I11S | -0.344 ± 0.039 |
| F44V | -0.539 ± 0.042 |
| F44S | -0.76 ± 0.067 |
| F44N | -1.01 ± 0.47 |

| Variant | abundance fitness |
| --- | --- |
| F44R | -0.939 ± 0.1 |
| F44K | -1.04 ± 0.27 |
| F44I | -0.38 ± 0.079 |
| F44H | -0.89 ± 0.22 |
| I77E | -0.031 ± 0.067 |
| I77V | 0.029 ± 0.037 |
| I77N | 0.17 ± 0.12 |
| V39T | -0.387 ± 0.061 |
| V39W | -0.445 ± 0.051 |
| V39K | -0.533 ± 0.14 |
| F2V | -0.289 ± 0.047 |
| F2L | -0.343 ± 0.046 |
| F2H | -0.43 ± 0.16 |
| F2Q | -0.522 ± 0.15 |
| F2Y | -0.161 ± 0.076 |
| L60H | -0.052 ± 0.069 |
| L60T | 0.001 ± 0.057 |
| L60C | -0.091 ± 0.068 |
| L60D | -0.23 ± 0.06 |
| L60A | -0.009 ± 0.034 |
| L60K | 0.043 ± 0.077 |

| Variant | abundance fitness |
| --- | --- |
| K43S | -0.185 ± 0.043 |
| K43H | -0.187 ± 0.087 |
| K43D | -0.2 ± 0.068 |
| K43N | -0.049 ± 0.077 |
| W26P | -0.861 ± 0.048 |
| W26M | -0.898 ± 0.062 |
| W26R | -0.934 ± 0.04 |
| W26Y | -0.281 ± 0.049 |
| W26F | -0.213 ± 0.053 |
| W26V | -0.863 ± 0.041 |
| W26D | -0.668 ± 0.064 |
| W26E | -0.84 ± 0.057 |
| W26C | -0.662 ± 0.058 |
| T19V | -0.635 ± 0.045 |
| T19W | -0.945 ± 0.11 |
| T19F | -0.858 ± 0.11 |
| T19M | -0.345 ± 0.053 |
| T19S | -0.052 ± 0.033 |
| N32Y | -0.327 ± 0.077 |
| N32Q | 0.003 ± 0.041 |
| N32R | 0.019 ± 0.027 |

| Variant | abundance fitness |
| --- | --- |
| N32K | 0.028 ± 0.054 |
| M28N | 0.054 ± 0.06 |
| M28A | -0.026 ± 0.033 |
| M28L | -0.022 ± 0.031 |
| A63M | -0.115 ± 0.059 |
| A63T | -0.134 ± 0.1 |
| A63Q | -0.282 ± 0.15 |
| A63W | -0.014 ± 0.062 |
| I70D | -0.532 ± 0.099 |
| I70G | -0.705 ± 0.054 |
| I70T | -0.008 ± 0.041 |
| A30L | -0.187 ± 0.036 |
| A30W | -0.195 ± 0.039 |
| A30Q | -0.183 ± 0.051 |
| A30C | -0.02 ± 0.059 |
| A30R | -0.643 ± 0.045 |
| A50E | 0.02 ± 0.04 |
| A50W | -0.548 ± 0.056 |
| A50P | -0.811 ± 0.072 |
| A50F | -0.375 ± 0.084 |
